T1: hsGLUT4 G446A (human, UniProt P14672 1-509)
T1 sequence: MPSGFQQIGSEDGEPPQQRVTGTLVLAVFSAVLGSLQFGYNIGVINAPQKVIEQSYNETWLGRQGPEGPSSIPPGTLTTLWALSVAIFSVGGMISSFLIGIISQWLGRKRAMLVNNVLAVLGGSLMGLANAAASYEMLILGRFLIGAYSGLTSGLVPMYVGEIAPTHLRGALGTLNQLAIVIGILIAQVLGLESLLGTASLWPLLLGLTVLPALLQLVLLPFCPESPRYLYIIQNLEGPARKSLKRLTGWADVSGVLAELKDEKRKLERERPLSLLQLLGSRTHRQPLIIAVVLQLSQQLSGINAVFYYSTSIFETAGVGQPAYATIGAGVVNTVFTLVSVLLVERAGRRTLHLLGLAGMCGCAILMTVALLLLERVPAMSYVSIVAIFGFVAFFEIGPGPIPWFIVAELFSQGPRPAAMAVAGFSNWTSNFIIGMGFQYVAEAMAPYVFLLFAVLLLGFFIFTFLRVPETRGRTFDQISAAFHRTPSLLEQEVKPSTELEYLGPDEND

T2: hsGLUT4 Y159A (human, UniProt P14672 1-509)
T2 sequence: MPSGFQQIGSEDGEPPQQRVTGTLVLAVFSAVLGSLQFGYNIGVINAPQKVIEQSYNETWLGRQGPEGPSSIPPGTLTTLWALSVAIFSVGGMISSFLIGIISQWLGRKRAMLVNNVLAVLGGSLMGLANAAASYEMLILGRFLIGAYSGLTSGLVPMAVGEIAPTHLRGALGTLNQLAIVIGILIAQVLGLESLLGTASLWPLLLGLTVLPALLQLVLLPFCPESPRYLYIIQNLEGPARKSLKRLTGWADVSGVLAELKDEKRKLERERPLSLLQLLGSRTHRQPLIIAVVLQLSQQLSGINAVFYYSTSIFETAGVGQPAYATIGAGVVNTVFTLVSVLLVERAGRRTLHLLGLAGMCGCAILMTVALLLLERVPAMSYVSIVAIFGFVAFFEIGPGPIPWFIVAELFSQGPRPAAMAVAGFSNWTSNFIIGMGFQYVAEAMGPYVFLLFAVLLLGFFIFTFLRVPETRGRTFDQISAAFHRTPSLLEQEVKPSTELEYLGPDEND

T3: hsGLUT4 Y502A (human, UniProt P14672 1-509)
T3 sequence: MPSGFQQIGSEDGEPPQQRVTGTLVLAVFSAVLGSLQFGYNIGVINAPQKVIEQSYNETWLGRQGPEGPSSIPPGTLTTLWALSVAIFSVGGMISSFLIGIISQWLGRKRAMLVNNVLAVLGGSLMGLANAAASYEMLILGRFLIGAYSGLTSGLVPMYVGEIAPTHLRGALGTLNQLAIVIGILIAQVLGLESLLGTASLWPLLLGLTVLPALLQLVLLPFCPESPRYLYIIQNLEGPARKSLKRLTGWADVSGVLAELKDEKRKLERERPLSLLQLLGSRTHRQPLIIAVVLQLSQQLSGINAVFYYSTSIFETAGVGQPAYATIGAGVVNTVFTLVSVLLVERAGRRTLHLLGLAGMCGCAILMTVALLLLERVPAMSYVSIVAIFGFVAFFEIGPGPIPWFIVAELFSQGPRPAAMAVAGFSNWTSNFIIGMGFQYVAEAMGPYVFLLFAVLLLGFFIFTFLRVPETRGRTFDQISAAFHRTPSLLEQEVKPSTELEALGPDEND

T4: hsGLUT4 F314A (human, UniProt P14672 1-509)
T4 sequence: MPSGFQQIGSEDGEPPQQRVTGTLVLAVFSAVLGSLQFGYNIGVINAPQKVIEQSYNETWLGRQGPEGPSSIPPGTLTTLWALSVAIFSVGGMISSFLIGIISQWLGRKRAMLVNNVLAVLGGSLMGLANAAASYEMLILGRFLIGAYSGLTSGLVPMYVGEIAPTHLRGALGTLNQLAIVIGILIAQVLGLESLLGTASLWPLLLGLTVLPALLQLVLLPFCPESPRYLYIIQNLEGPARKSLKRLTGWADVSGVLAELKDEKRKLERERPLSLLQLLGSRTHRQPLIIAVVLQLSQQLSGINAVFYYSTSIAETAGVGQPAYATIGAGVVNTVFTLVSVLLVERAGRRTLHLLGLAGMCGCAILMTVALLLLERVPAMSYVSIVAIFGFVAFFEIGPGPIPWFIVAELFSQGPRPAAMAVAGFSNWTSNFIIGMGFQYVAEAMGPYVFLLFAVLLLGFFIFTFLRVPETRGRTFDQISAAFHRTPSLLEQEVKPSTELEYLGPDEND

B1: AB108 (Fc fusion)
scFv: ALTQPSSVSANLGGTVKITCSGSSGSYGWYQQKAPGSAPVTLIYRNDKRPSDIPSRFSGSESGSTGTLTITGVQAEDEAVYFCGGYDSSAGYAAFGAGTTLTVLGQSSRSSGGGGSSGGGGSAVTLDESGGGLQTPGGALSLVCKASGFTFSSHGMGWVRQAPGKGLEWVGSISTGRYTFYAPAVKGRATISRDNGQSTLRLQLNNLRAEDTGTYYCTKCAGLNGCGGGEIDAWGHGTEVIVSS
notes: Bivalent scFv-Fc; also called MAb AB108; not shown: Fc fragment of human IgG1, cloned in frame with the scFv
B2: AB111 (Fc fusion)
scFv: ALTQPSSVSANPGETVKITCSGSGSWYGWFQQKSPGSAPVTVIYSNDKRPSDIPSRFSGSKSGSTSTLTITGVQVEDEAVYYCGNWDIFGAGTTLTVLGQSSRSSGGGGSSGGGGSAVTLDESGGGLQTPGGALSLVCKASGFTFSSHGMGWVRQAPGKGLEWVASISTGRYTFYAPAVKGRATISRDNGQSTVRLQLNNLRAEDTATYYCTKCAGLNGCGGGEIDAWGHGTEVIVSS
notes: Bivalent scFv-Fc; also called MAb AB111; not shown: Fc fragment of human IgG1, cloned in frame with the scFv
B3: AB101 (scFv)
scFv: ALTQPSSVSANPGETVKITCSGSSNSYGWYQQKSPGSAPVTVIYYNDKRPSDIPSRFSGSKSDSTHTLTITGVRAEDEAVYFCGSYDSTYVGIFGAGTTLTVLGQSSRSSGGGGSSGGGGSAVTLDESGGGLQTPGGTLSLVCKASGFTFSSNAMGWVRQAPGKGLEWVAGISSDGRYTKYGSAVKGRATISRDNGQSTVRLQLNNLRAEDTGTYFCAKAFGNNYRRIYAGQIDAWGHGTEVIVSS
notes: Chicken-derived clone used as a control; the four lead clones were tested as scFv-human IgG1 Fc; also called MAb AB101

Assays:
Assay in all cases: flow cytometry, alanine-scan library in HEK-293T
hsGLUT4 G446A = target: T1, hsGLUT4 G446A
Summary of the method: (§1)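 HEK-293T cells expressing individual GLUT4 alanine mutants were stained 48 h post-transfection with anti-GLUT4 scFv MAbs (2 μg/ml), then biotinylated secondary and streptavidin-PerCP, and read by high-throughput flow cytometry. Where used, cytochalasin B (10 uM final) was given for 30 min before and during primary antibody staining.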

hsGLUT4 Y159A = target: T2, hsGLUT4 Y159A
Summary of the method: as §1

hsGLUT4 Y502A = target: T3, hsGLUT4 Y502A
Summary of the method: as §1

hsGLUT4 F314A = target: T4, hsGLUT4 F314A
Summary of the method: as §1

| Molecule | % of binding to wild type GLUT4 (hsGLUT4 G446A) [%] | % of binding to wild type GLUT4 (hsGLUT4 Y159A) [%] | % of binding to wild type GLUT4 (hsGLUT4 Y502A) [%] | % of binding to wild type GLUT4 (hsGLUT4 F314A) [%] |
| --- | --- | --- | --- | --- |
| 1F8 (antibody) | 108 | 96 | 51 | 91 |
| B1 | 86 | 46 | 94 | 92 |
| B2 | 71 | 88 | 169 | 166 |
| B3 | 95 | 122 | 4 | 91 |

Reference: US20210238276A1 (INTEGRAL MOLECULAR, published 2021)
